Bridge positions count the residues as written; N and C are the ends. Square brackets hold non-standard residues; d marks the D form. Primed or numbered codes have the meaning given here. Ends that are not written are not given here. * marks the point of attachment. DSG″ = disuccinimidyl glutarate, a bis-NHS cross-linker that leaves a glutaryl bridge between two amines; DSG(3) = disuccinimidyl glutarate, bis-NHS cross-linker leaving a glutaryl bridge between two amines; puromycin = COc1ccc(C[C@H](N*)C(=O)N[C@H]2[C@@H](O)[C@H](n3cnc4c(N(C)C)ncnc43)O[C@@H]2CO)cc1; DSG = disuccinimidyl glutarate; NMeA = CN[C@@H](C)C(=O)O; mRNA = not defined here
Tests used:
[1] = biological target: T1, His6-LC3A, biotinylated and immobilized on streptavidin agarose (human, UniProt Q9H492 1-121, chemically biotinylated (sites not given)); experiment: radiolabeled peptide fusion incubated with immobilized LC3A
T1 construct: the species is not restated for this construct; The tag is placed at the N-terminus only because of the name His6-LC3A; also called immobilized LC3A; immobilized LC3; not shown: His6 tag

[2] = biological target: LC3 (as used in surface plasmon resonance) (human, UniProt Q9H492 1-120); experiment: surface plasmon resonance

| Binder | % of radiolabeled peptide-fusions bound to immobilized LC3 [1] [%] | Kd [2] [µM] | fold improvement of the apparent dissociation constant relative to SUPR4B [2] [fold] |
| --- | --- | --- | --- |
| MFPHRVTA[NMeA]K (bridge N-10; not fully specified (C-terminus, bridges); also: radiolabeled, Tested as an individual in vitro translated peptide fusion from the SUPR mRNA display selection; also called Peptide 4B) [Clone 4B radiolabeled mRNA-peptide fusion] | 86 | – | – |
| MFSHRVTL[NMeA]K (bridge N-10; not fully specified (C-terminus, bridges); also: radiolabeled) [Clone 25C radiolabeled mRNA-peptide fusion] | 13 | – | – |
| MLSDIPVNDK-{puromycin-mRNA} (bridge N-10 via DSG(3); reading uncertain; also: radiolabeled) [Clone 4E radiolabeled mRNA-peptide fusion] | 7 | – | – |
| MWPHRVTA[NMeA]K (bridge N-10 via DSG, Phenylalanine-to-tryptophan variant of SUPR 4B at position 2) [SUPR 4B1W] | – | 30 | ~10 |
| MYARSLRD[NMeA]K (bridge N-10; not fully specified (C-terminus, bridges); also: radiolabeled) [Clone 25A radiolabeled mRNA-peptide fusion] | 6 | – | – |
| MNARSLRD[NMeA]K (bridge N-10; not fully specified (C-terminus, bridges); also: radiolabeled) [Clone 25F radiolabeled mRNA-peptide fusion] | 5 | – | – |
| MFPHRVTA[NMeA]K (bridge N-10 via DSG″, It is kept apart from the mRNA-peptide fusion m1; also called Clone 4B) [SUPR 4B (synthesized cyclic peptide)] | – | 291 | – |

From patent publication US20220096594A1 (University of Texas, published 2022)
